Experiments:
[1] = target: T1, cynomolgus monkey CD40 on cells (cynomolgus monkey, UniProt G7PG38 21-278); assay: FACS, CHO-K1/cyCD40 cells
T1 construct: also called cyCD40; CHO-K1/cyCD40
From the text: (§1) Flow cytometry (FACS) was used to detect the binding ability of the CD40 antibody to cells, such as, CHO-K1/hCD40 highly expressing human CD40 (constructed by Beijing Kyinno Biotechnology), CHO-K1/cyCD40 highly expressing cynomolgus monkey CD40 (constructed by Beijing Kyinno Biotechnology) and lymphoma cell highly expressing human CD40, Raji (ATCC, #CCL-86). Specifically, the cells were digested and resuspended with complete medium (F-12K for CHO-K1 cells; and RPMI-1640 for Raji cells); and the cells were adjusted to a cell density of 1×10⁶ cells/mL. The cells were seeded in a 96-well V-bottom plate (Corning, #3894) at 100 μL/well, and the antigen binding protein to be tested at 2x final concentration was then added at 100 μL/well and mixed evenly, with the highest final concentration of the antigen binding protein of 300 nM, a total of 8 concentrations, and 5-fold concentration gradient dilution. hIgG (Crownbio, #C0002) was used as a negative control, and the positive control molecule was the molecule in Table 1-5. The cells were incubated at 4° C. for 1 hours in the dark. After the incubation, the cells were rinsed twice by adding pre-chilled PBS at 100 μL/well, and centrifuged at 500 g at 4° C. for 5 minutes, and the supernatant was discarded. Then, a fluorescent secondary antibody (goat anti-human IgG (H+L) secondary antibody, Alexa Fluor® 488 conjugate, Invitrogen, #A11013, 1:1000 dilution) was added at 100 µL/well, and the cells were incubated at 4° C. for 30 minutes in the dark. The cells were washed twice with pre-chilled PBS at 200 μL/well, and centrifuged at 500 g at 4° C. for 5 minutes, and the supernatant was discarded. Finally, the cells were resuspended in pre-chilled PBS at 200 μL/well. The fluorescence signal values were read using a BD FACS CANTOII flow cytometer or ACEA NovoCyte flow cytometer, and the data were processed and analyzed using FlowJo v10 software (FlowJo, LLC).
(§2) Data processing and graphical analysis were performed using GraphPad Prism 8 software. The binding curve of the antibody to the target cell and parameters, such as EC50 value were obtained by four-parameter nonlinear fitting.

[2] = target: T2, human CD40 on cells (human, UniProt P25942 21-277); assay: FACS, CHO-K1/hCD40 cells
T2 construct: whole, on cells; The cell line used is named in each row's assay; also called hCD40; TNFRSF5
From the text: as §1, §2

[3] = target: T2, human CD40 on cells; assay: FACS, Raji cells
From the text: as §1, §2

T2 sequence (P25942 21-277): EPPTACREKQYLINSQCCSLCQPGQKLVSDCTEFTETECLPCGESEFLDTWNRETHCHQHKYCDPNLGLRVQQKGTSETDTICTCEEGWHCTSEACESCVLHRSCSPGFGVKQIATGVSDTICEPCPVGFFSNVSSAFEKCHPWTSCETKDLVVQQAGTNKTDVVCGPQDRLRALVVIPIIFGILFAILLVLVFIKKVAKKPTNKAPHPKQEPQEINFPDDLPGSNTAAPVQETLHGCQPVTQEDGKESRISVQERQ
T1 sequence (G7PG38 entry or part of it limits assumed): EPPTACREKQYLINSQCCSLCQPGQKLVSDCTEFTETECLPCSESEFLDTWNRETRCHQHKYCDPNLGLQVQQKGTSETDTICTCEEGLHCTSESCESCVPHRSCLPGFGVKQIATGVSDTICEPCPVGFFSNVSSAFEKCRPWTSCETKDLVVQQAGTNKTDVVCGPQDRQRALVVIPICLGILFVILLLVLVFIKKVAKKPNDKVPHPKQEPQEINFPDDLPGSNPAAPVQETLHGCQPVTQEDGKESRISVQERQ

Binder | EC50 [1] [nM] | Maximum MFI [1] [MFI] | EC50 [2] [nM] | Maximum MFI [2] [MFI] | EC50 [3] [nM] | Maximum MFI [3] [MFI]
PR001303 (APX005) (antibody, human IgG1, kappa, CD40 positive control antibody) heavy: not shown light: DIQMTQSPSSLSASVGDRVTIKCQASQSISSRLAWYQQKPGKPPKLLIYRASTLASGVPSRFSGSGSGTDFTLTISSLQPEDVATYYCQCTGYGISWPIGGGTKVEIKRTVAAPSVFIFPPSDEQLKSGTASVVCLLNNFYPREAKVQWKVDNALQSGNSQESVTEQDSKDSTYSLSSTLTLSKADYEKHKVYACEVTHQGLSSPVTKSFNRGEC | 4.72 | 93600 | 2.83 | 26000 | 0.0347 | 2790
PR006492 (antibody, human IgG1, kappa, V domains shown, PR003379 variant L:N92E; human IgG1 L234A, L235A, G237A) VH: QVQLVQSGAEVKKPGASVKVSCKASGYTFAGYYMYWVRQAPGQGLEWMGWINPDSGAPTYAQKFQGRVTMTRDTSISTAYMELSRLRSDDTAVYYCAREKIYYGSGNYYPSFDYWGQGTLVTVSS VL: DIQLTQSPSFLSASVGDRVTITCRASQGISSYLAWYQQKPGKAPKLLIYAASTLQSGVPSRFSGSGSGTEFTLTISSLQPEDFATYYCQQLESYPWTFGQGTKVEIKR | 6.26 | 52200 | 8.87 | 92300 | 0.418 | 9070
PR006493 (antibody, human IgG1, kappa, V domains shown, PR003379 variant L:N92L; human IgG1 L234A, L235A, G237A) VH: QVQLVQSGAEVKKPGASVKVSCKASGYTFAGYYMYWVRQAPGQGLEWMGWINPDSGAPTYAQKFQGRVTMTRDTSISTAYMELSRLRSDDTAVYYCAREKIYYGSGNYYPSFDYWGQGTLVTVSS VL: DIQLTQSPSFLSASVGDRVTITCRASQGISSYLAWYQQKPGKAPKLLIYAASTLQSGVPSRFSGSGSGTEFTLTISSLQPEDFATYYCQQLLSYPWTFGQGTKVEIKR | 4.06 | 48900 | 5.26 | 83400 | 0.377 | 9350
PR006494 (antibody, human IgG1, kappa, V domains shown, PR003379 variant L:N92T; human IgG1 L234A, L235A, G237A) VH: QVQLVQSGAEVKKPGASVKVSCKASGYTFAGYYMYWVRQAPGQGLEWMGWINPDSGAPTYAQKFQGRVTMTRDTSISTAYMELSRLRSDDTAVYYCAREKIYYGSGNYYPSFDYWGQGTLVTVSS VL: DIQLTQSPSFLSASVGDRVTITCRASQGISSYLAWYQQKPGKAPKLLIYAASTLQSGVPSRFSGSGSGTEFTLTISSLQPEDFATYYCQQLTSYPWTFGQGTKVEIKR | 4.04 | 49600 | 8.73 | 98800 | 0.328 | 9180
PR006501 (antibody, human IgG1, kappa, V domains shown, PR003379 variant L:N92Q; human IgG1 L234A, L235A, G237A) VH: QVQLVQSGAEVKKPGASVKVSCKASGYTFAGYYMYWVRQAPGQGLEWMGWINPDSGAPTYAQKFQGRVTMTRDTSISTAYMELSRLRSDDTAVYYCAREKIYYGSGNYYPSFDYWGQGTLVTVSS VL: DIQLTQSPSFLSASVGDRVTITCRASQGISSYLAWYQQKPGKAPKLLIYAASTLQSGVPSRFSGSGSGTEFTLTISSLQPEDFATYYCQQLQSYPWTFGQGTKVEIKR | 4.19 | 48200 | 5.29 | 91000 | 0.352 | 9000
PR006503 (antibody, human IgG1, kappa, V domains shown, PR003379 variant L:N92G; human IgG1 L234A, L235A, G237A) VH: QVQLVQSGAEVKKPGASVKVSCKASGYTFAGYYMYWVRQAPGQGLEWMGWINPDSGAPTYAQKFQGRVTMTRDTSISTAYMELSRLRSDDTAVYYCAREKIYYGSGNYYPSFDYWGQGTLVTVSS VL: DIQLTQSPSFLSASVGDRVTITCRASQGISSYLAWYQQKPGKAPKLLIYAASTLQSGVPSRFSGSGSGTEFTLTISSLQPEDFATYYCQQLGSYPWTFGQGTKVEIKR | 3.99 | 49600 | 6.07 | 84500 | 0.333 | 12200
PR006505 (antibody, human IgG1, kappa, V domains shown, PR003379 variant L:S93I; human IgG1 L234A, L235A, G237A) VH: QVQLVQSGAEVKKPGASVKVSCKASGYTFAGYYMYWVRQAPGQGLEWMGWINPDSGAPTYAQKFQGRVTMTRDTSISTAYMELSRLRSDDTAVYYCAREKIYYGSGNYYPSFDYWGQGTLVTVSS VL: DIQLTQSPSFLSASVGDRVTITCRASQGISSYLAWYQQKPGKAPKLLIYAASTLQSGVPSRFSGSGSGTEFTLTISSLQPEDFATYYCQQLNIYPWTFGQGTKVEIKR | 4.62 | 48100 | 6.08 | 82700 | 0.336 | 11900
PR006506 (antibody, human IgG1, kappa, V domains shown, PR003379 variant L:S93F; human IgG1 L234A, L235A, G237A) VH: QVQLVQSGAEVKKPGASVKVSCKASGYTFAGYYMYWVRQAPGQGLEWMGWINPDSGAPTYAQKFQGRVTMTRDTSISTAYMELSRLRSDDTAVYYCAREKIYYGSGNYYPSFDYWGQGTLVTVSS VL: DIQLTQSPSFLSASVGDRVTITCRASQGISSYLAWYQQKPGKAPKLLIYAASTLQSGVPSRFSGSGSGTEFTLTISSLQPEDFATYYCQQLNFYPWTFGQGTKVEIKR | 4.5 | 47300 | 5.85 | 82800 | 0.388 | 12100
PR006507 (antibody, human IgG1, kappa, V domains shown, PR003379 variant L:S93E; human IgG1 L234A, L235A, G237A) VH: QVQLVQSGAEVKKPGASVKVSCKASGYTFAGYYMYWVRQAPGQGLEWMGWINPDSGAPTYAQKFQGRVTMTRDTSISTAYMELSRLRSDDTAVYYCAREKIYYGSGNYYPSFDYWGQGTLVTVSS VL: DIQLTQSPSFLSASVGDRVTITCRASQGISSYLAWYQQKPGKAPKLLIYAASTLQSGVPSRFSGSGSGTEFTLTISSLQPEDFATYYCQQLNEYPWTFGQGTKVEIKR | 5.01 | 49300 | 5.58 | 81800 | 0.384 | 12300
PR006509 (antibody, human IgG1, kappa, V domains shown, PR003379 variant L:S93L; human IgG1 L234A, L235A, G237A) VH: QVQLVQSGAEVKKPGASVKVSCKASGYTFAGYYMYWVRQAPGQGLEWMGWINPDSGAPTYAQKFQGRVTMTRDTSISTAYMELSRLRSDDTAVYYCAREKIYYGSGNYYPSFDYWGQGTLVTVSS VL: DIQLTQSPSFLSASVGDRVTITCRASQGISSYLAWYQQKPGKAPKLLIYAASTLQSGVPSRFSGSGSGTEFTLTISSLQPEDFATYYCQQLNLYPWTFGQGTKVEIKR | 4.69 | 45300 | 5.51 | 79600 | 0.371 | 12200
PR006512 (antibody, human IgG1, kappa, V domains shown, PR003379 variant L:S93T; human IgG1 L234A, L235A, G237A) VH: QVQLVQSGAEVKKPGASVKVSCKASGYTFAGYYMYWVRQAPGQGLEWMGWINPDSGAPTYAQKFQGRVTMTRDTSISTAYMELSRLRSDDTAVYYCAREKIYYGSGNYYPSFDYWGQGTLVTVSS VL: DIQLTQSPSFLSASVGDRVTITCRASQGISSYLAWYQQKPGKAPKLLIYAASTLQSGVPSRFSGSGSGTEFTLTISSLQPEDFATYYCQQLNTYPWTFGQGTKVEIKR | 4.55 | 45800 | 5.18 | 81600 | 0.424 | 12100
PR006513 (antibody, human IgG1, kappa, V domains shown, PR003379 variant L:S93Q; human IgG1 L234A, L235A, G237A) VH: QVQLVQSGAEVKKPGASVKVSCKASGYTFAGYYMYWVRQAPGQGLEWMGWINPDSGAPTYAQKFQGRVTMTRDTSISTAYMELSRLRSDDTAVYYCAREKIYYGSGNYYPSFDYWGQGTLVTVSS VL: DIQLTQSPSFLSASVGDRVTITCRASQGISSYLAWYQQKPGKAPKLLIYAASTLQSGVPSRFSGSGSGTEFTLTISSLQPEDFATYYCQQLNQYPWTFGQGTKVEIKR | 3.56 | 40200 | 7.51 | 89200 | 0.373 | 12000
PR006514 (antibody, human IgG1, kappa, V domains shown, PR003379 variant L:S93V; human IgG1 L234A, L235A, G237A) VH: QVQLVQSGAEVKKPGASVKVSCKASGYTFAGYYMYWVRQAPGQGLEWMGWINPDSGAPTYAQKFQGRVTMTRDTSISTAYMELSRLRSDDTAVYYCAREKIYYGSGNYYPSFDYWGQGTLVTVSS VL: DIQLTQSPSFLSASVGDRVTITCRASQGISSYLAWYQQKPGKAPKLLIYAASTLQSGVPSRFSGSGSGTEFTLTISSLQPEDFATYYCQQLNVYPWTFGQGTKVEIKR | 4.23 | 45100 | 5.08 | 86900 | 0.455 | 12000
PR006516 (antibody, human IgG1, kappa, V domains shown, PR003379 variant L:S93H; human IgG1 L234A, L235A, G237A) VH: QVQLVQSGAEVKKPGASVKVSCKASGYTFAGYYMYWVRQAPGQGLEWMGWINPDSGAPTYAQKFQGRVTMTRDTSISTAYMELSRLRSDDTAVYYCAREKIYYGSGNYYPSFDYWGQGTLVTVSS VL: DIQLTQSPSFLSASVGDRVTITCRASQGISSYLAWYQQKPGKAPKLLIYAASTLQSGVPSRFSGSGSGTEFTLTISSLQPEDFATYYCQQLNHYPWTFGQGTKVEIKR | 5.29 | 51400 | 5.08 | 86100 | 0.351 | 8900

From US20250215100A1 (HARBOUR BIOMED SHANGHAI, published 2025)
